# Measurements reported in PMC10705692, “Structural dynamics of GluK2 kainate receptors in apo and partial agonist bound states” (Research Square, 2023).
# Target: the molecule itself
# Experiment: cryo-EM structure; purified GluK2 EM in DDM micelles without ligand (apo; residual glutamate washed out on Strep-Tactin), 50 mM Tris-Cl pH 8.0, 150 mM NaCl, 1 mM DDM, ~4 mg/ml; single-particle cryo-EM, C2 imposed, 3.0 Å
protein,measurement,value
"full-length rat GluK2 KAR, cryo-EM construct (GluK2 EM) (receptor, UniProt P42260 32-908, looked up, N-glycosylation at Asn 67, 73, 275, 378, 412, 423, 430, 546 and 751 (LC-MS/MS of the purified protein), Glutamate receptor ionotropic, kainate 2 (GluK2), rat, full length; RNA-edited at position 567 (I to V), with C576V and C595S; followed by a human rhinovirus 3C protease site and a Twin-Strep tag at the C-terminus; Homotetramer (subunits A-D); No cleavage of the 3C site is described; also called homomeric rat GluK2; GRIK2_RAT; source: Sf9 insect cells (baculovirus, EarlyBac), solubilised in DDM, …) TTHVLRFGGIFEYVESGPMGAEELAFRFAVNTINRNRTLLPNTTLTYDTQKINLYDSFEASKKACDQLSLGVAAIFGPSHSSSANAVQSICNALGVPHIQTRWKHQVSDNKDSFYVSLYPDFSSLSRAILDLVQFFKWKTVTVVYDDSTGLIRLQELIKAPSRYNLRLKIRQLPADTKDAKPLLKEMKRGKEFHVIFDCSHEMAAGILKQALAMGMMTEYYHYIFTTLDLFALDVEPYRYSGVNMTGFRILNTENTQVSSIIEKWSMERLQAPPKPDSGLLDGFMTTDAALMYDAVHVVSVAVQQFPQMTVSSLQCNRHKPWRFGTRFMSLIKEAHWEGLTGRITFNKTNGLRTDFDLDVISLKEEGLEKIGTWDPASGLNMTESQKGKPANITDSLSNRSLIVTTILEEPYVLFKKSDKPLYGNDRFEGYCIDLLRELSTILGFTYEIRLVEDGKYGAQDDVNGQWNGMVRELIDHKADLAVAPLAITYVREKVIDFSKPFMTLGISILYRKPNGTNPGVFSFLNPLSPDIWMYVLLAYLGVSVVLFVIARFSPYEWYNPHPSNPDSDVVENNFTLLNSFWFGVGALMQQGSELMPKALSTRIVGGIWWFFTLIIISSYTANLAAFLTVERMESPIDSADDLAKQTKIEYGAVEDGATMTFFKKSKISTYDKMWAFMSSRRQSVLVKSNEEGIQRVLTSDYAFLMESTTIEFVTQRNCNLTQIGGLIDSKGYGVGTPMGSPYRDKITIAILQLQEEGKLHMMKEKWWRGNGCPEEESKEASALGVQNIGGIFIVLAAGLVLSVFVAVGEFLYKSKKNAQLEKRSFCSAMVEELRMSLKCQRRLKHKPQAPVIVKTEEVINMHTFNDRRLPGKETMA",stoichiometry N,4
